Source: the supplement of paper PMC9112550, “Optimization of the antimicrobial peptide Bac7 by deep mutational scanning” (BMC Biology, 2022)

Test system: Escherichia coli TOP10
Experiment: shrunken log2 fold change of peptide-encoding DNA abundance (4.5 h post-induction vs induction); higher = less antimicrobial activity (less host growth inhibition)
Conditions: time post-induction: 4.5 h; library: site-saturation at positions 5, 18, 19, 20
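Further: peptides expressed intracellularly from a pBAD plasmid library in pooled LB shake-flask culture, induced with 0.3% L-arabinose, DNA abundance read by NGS, three biological replicates, DESeq2 with apeglm shrinkage.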

In order of falling “shrunken log2 fold change” value:
1. RRIRMRPPRLPRPRPRPEQRPRP  2.55
2. RRIRMRPPRLPRPRPRPMCAPRP  1.57
3. RRIRGRPPRLPRPRPRPTCAPRP  1.11
4. RRIRTRPPRLPRPRPRPPAKPRP  1.11
5. RRIRGRPPRLPRPRPRPFAPPRP  1
6. RRIRKRPPRLPRPRPRPPIPPRP  0.987
7. RRIRARPPRLPRPRPRPKSWPRP  0.89
8. RRIRGRPPRLPRPRPRPVEEPRP  0.843
9. RRIRMRPPRLPRPRPRPALQPRP  0.791
10. RRIRARPPRLPRPRPRPTSAPRP  0.684
11. RRIRARPPRLPRPRPRPAFWPRP  0.673
12. RRIRMRPPRLPRPRPRPGGNPRP  0.671
13. RRIRARPPRLPRPRPRPPVPPRP  0.638
14. RRIRKRPPRLPRPRPRPMKDPRP  0.618
15. RRIRMRPPRLPRPRPRPHAPPRP  0.469
16. RRIRCRPPRLPRPRPRPPWQPRP  0.389
17. RRIRDRPPRLPRPRPRPMIMPRP  0.387
18. RRIRRRPPRLPRPRPRPVCFPRP  0.383
19. RRIRGRPPRLPRPRPRPNCEPRP  0.376
20. RRIRDRPPRLPRPRPRPEFDPRP  0.375
21. RRIRWRPPRLPRPRPRPPCWPRP  0.347
22. RRIRARPPRLPRPRPRPSCDPRP  0.323
23. RRIRLRPPRLPRPRPRPPLMPRP  0.313
24. RRIRERPPRLPRPRPRPLRRPRP  0.303
25. RRIRRRPPRLPRPRPRPRVHPRP  0.264
26. RRIRGRPPRLPRPRPRPQLHPRP  0.231
27. RRIRWRPPRLPRPRPRPEIIPRP  0.231
28. RRIRVRPPRLPRPRPRPEMHPRP  0.209
29. RRIRVRPPRLPRPRPRPARCPRP  0.205
30. RRIRGRPPRLPRPRPRPHWRPRP  0.203
31. RRIRQRPPRLPRPRPRPPKLPRP  0.202
32. RRIRSRPPRLPRPRPRPWVKPRP  0.194
33. RRIRMRPPRLPRPRPRPTDNPRP  0.188
34. RRIRVRPPRLPRPRPRPFAEPRP  0.171
35. RRIRVRPPRLPRPRPRPKRNPRP  0.166
36. RRIRCRPPRLPRPRPRPEDDPRP  0.159
37. RRIRGRPPRLPRPRPRPYHIPRP  0.158
38. RRIRTRPPRLPRPRPRPVRMPRP  0.148
39. RRIRDRPPRLPRPRPRPGAYPRP  0.136
40. RRIRNRPPRLPRPRPRPFFVPRP  0.126
41. RRIRVRPPRLPRPRPRPIFFPRP  0.125
42. RRIRCRPPRLPRPRPRPFKSPRP  0.122
43. RRIRLRPPRLPRPRPRPECTPRP  0.114
44. RRIRKRPPRLPRPRPRPQCQPRP  0.114
45. RRIRGRPPRLPRPRPRPKFRPRP  0.112
46. RRIRARPPRLPRPRPRPSWAPRP  0.106
47. RRIRARPPRLPRPRPRPLLRPRP  0.103
48. RRIRHRPPRLPRPRPRPLPGPRP  0.103
49. RRIRGRPPRLPRPRPRPCNWPRP  0.101
50. RRIRNRPPRLPRPRPRPGIAPRP  0.0989
51. RRIRRRPPRLPRPRPRPTYGPRP  0.0875
52. RRIRSRPPRLPRPRPRPRDKPRP  0.0811
53. RRIRKRPPRLPRPRPRPQTKPRP  0.069
54. RRIRSRPPRLPRPRPRPRSEPRP  0.0656
55. RRIRMRPPRLPRPRPRPWWCPRP  0.0647
56. RRIRERPPRLPRPRPRPFSWPRP  0.0616
57. RRIRMRPPRLPRPRPRPRGEPRP  0.0602
58. RRIRHRPPRLPRPRPRPKWTPRP  0.0551
59. RRIRRRPPRLPRPRPRPMKAPRP  0.0483
60. RRIRIRPPRLPRPRPRPNCGPRP  0.0437
61. RRIRIRPPRLPRPRPRPCARPRP  0.039
62. RRIRNRPPRLPRPRPRPKGIPRP  0.0346
63. RRIRDRPPRLPRPRPRPHTKPRP  0.0345
64. RRIRWRPPRLPRPRPRPASLPRP  0.0313
65. RRIRPRPPRLPRPRPRPKKVPRP  0.0308
66. RRIRQRPPRLPRPRPRPHVWPRP  0.03
67. RRIRGRPPRLPRPRPRPFVTPRP  0.0292
68. RRIRIRPPRLPRPRPRPFYGPRP  0.0259
69. RRIRCRPPRLPRPRPRPNAFPRP  0.0246
70. RRIRWRPPRLPRPRPRPSETPRP  0.0208
71. RRIRFRPPRLPRPRPRPICGPRP  0.0198
72. RRIRWRPPRLPRPRPRPMTGPRP  0.019
73. RRIRNRPPRLPRPRPRPLAQPRP  0.0157
74. RRIRNRPPRLPRPRPRPCSDPRP  0.0121
75. RRIRQRPPRLPRPRPRPGYEPRP  0.00854
76. RRIRIRPPRLPRPRPRPLDRPRP  0.00847
77. RRIRYRPPRLPRPRPRPQWIPRP  0.00701
78. RRIRWRPPRLPRPRPRPKDGPRP  0.00598
79. RRIRMRPPRLPRPRPRPCNWPRP  -0.00208
80. RRIRDRPPRLPRPRPRPEKSPRP  -0.00264
81. RRIRKRPPRLPRPRPRPGSYPRP  -0.00588
82. RRIRDRPPRLPRPRPRPKCRPRP  -0.00674
83. RRIRSRPPRLPRPRPRPWKDPRP  -0.00804
84. RRIRERPPRLPRPRPRPIPYPRP  -0.00829
85. RRIRLRPPRLPRPRPRPHWLPRP  -0.0104
86. RRIRRRPPRLPRPRPRPFYGPRP  -0.0114
87. RRIRSRPPRLPRPRPRPDFQPRP  -0.0122
88. RRIRWRPPRLPRPRPRPFQSPRP  -0.0153
89. RRIRERPPRLPRPRPRPRIVPRP  -0.0184
90. RRIRYRPPRLPRPRPRPYKFPRP  -0.0196
91. RRIRQRPPRLPRPRPRPARIPRP  -0.0224
92. RRIRERPPRLPRPRPRPDNCPRP  -0.0268
93. RRIRYRPPRLPRPRPRPIDQPRP  -0.0356
94. RRIRIRPPRLPRPRPRPETDPRP  -0.0362
95. RRIRHRPPRLPRPRPRPCYIPRP  -0.0479
96. RRIRDRPPRLPRPRPRPLKRPRP  -0.0492
97. RRIRPRPPRLPRPRPRPTKFPRP  -0.0516
98. RRIRPRPPRLPRPRPRPWNVPRP  -0.052
99. RRIRDRPPRLPRPRPRPPEFPRP  -0.0567
100. RRIRDRPPRLPRPRPRPATVPRP  -0.0689
101. RRIRQRPPRLPRPRPRPTGSPRP  -0.0708
102. RRIRPRPPRLPRPRPRPMWCPRP  -0.0757
103. RRIRPRPPRLPRPRPRPTKIPRP  -0.0764
104. RRIRQRPPRLPRPRPRPSHIPRP  -0.0881
105. RRIRDRPPRLPRPRPRPKNDPRP  -0.103
106. RRIRSRPPRLPRPRPRPMHLPRP  -0.118
107. RRIRKRPPRLPRPRPRPYAYPRP  -0.12
108. RRIRPRPPRLPRPRPRPGHPPRP  -0.12
109. RRIRSRPPRLPRPRPRPFPCPRP  -0.124
110. RRIRPRPPRLPRPRPRPKDKPRP  -0.125
111. RRIRTRPPRLPRPRPRPDRDPRP  -0.126
112. RRIRTRPPRLPRPRPRPVMNPRP  -0.143
113. RRIRFRPPRLPRPRPRPVSRPRP  -0.145
114. RRIRIRPPRLPRPRPRPGIEPRP  -0.154
115. RRIRSRPPRLPRPRPRPEFHPRP  -0.162
116. RRIRKRPPRLPRPRPRPYRWPRP  -0.164
117. RRIRCRPPRLPRPRPRPWRQPRP  -0.167
118. RRIRWRPPRLPRPRPRPMLHPRP  -0.17
119. RRIRVRPPRLPRPRPRPMWGPRP  -0.174
120. RRIRERPPRLPRPRPRPSDVPRP  -0.182
121. RRIRYRPPRLPRPRPRPINSPRP  -0.184
122. RRIRRRPPRLPRPRPRPFWYPRP  -0.192
123. RRIRHRPPRLPRPRPRPHVHPRP  -0.201
124. RRIRRRPPRLPRPRPRPDNVPRP  -0.211
125. RRIRYRPPRLPRPRPRPIAIPRP  -0.217
126. RRIRLRPPRLPRPRPRPLNIPRP  -0.221
127. RRIRIRPPRLPRPRPRPITLPRP  -0.237
128. RRIRLRPPRLPRPRPRPNCTPRP  -0.24
129. RRIRYRPPRLPRPRPRPHYHPRP  -0.241
130. RRIRTRPPRLPRPRPRPAYDPRP  -0.251
131. RRIRNRPPRLPRPRPRPSKDPRP  -0.285
132. RRIRFRPPRLPRPRPRPIPHPRP  -0.31
133. RRIRVRPPRLPRPRPRPIVWPRP  -0.328
134. RRIRERPPRLPRPRPRPNHGPRP  -0.348
135. RRIRYRPPRLPRPRPRPCQPPRP  -0.354
136. RRIRFRPPRLPRPRPRPCLMPRP  -0.379
137. RRIRVRPPRLPRPRPRPIISPRP  -0.418
138. RRIRWRPPRLPRPRPRPNECPRP  -0.437
139. RRIRSRPPRLPRPRPRPSPIPRP  -0.467
140. RRIRHRPPRLPRPRPRPMVNPRP  -0.469
141. RRIRHRPPRLPRPRPRPSTSPRP  -0.478
142. RRIRVRPPRLPRPRPRPFNPPRP  -0.484
143. RRIRPRPPRLPRPRPRPYFHPRP  -0.522
144. RRIRWRPPRLPRPRPRPSHNPRP  -0.596
145. RRIRTRPPRLPRPRPRPSQMPRP  -0.607
146. RRIRERPPRLPRPRPRPYFGPRP  -0.673
147. RRIRCRPPRLPRPRPRPQFIPRP  -0.866
148. RRIRYRPPRLPRPRPRPHYTPRP  -0.936
149. RRIRYRPPRLPRPRPRPFTEPRP  -0.955
150. RRIRYRPPRLPRPRPRPIIDPRP  -1
